Values joined by “and” are separate entries in the source; they are usually repeats but may differ in a detail not shown here. Identical values can stand only once.
How the values were obtained:
[1] = target: the molecule itself; assay: MALDI-TOF mass spectrometry; protein at 0.4 mM desalted on a C4 ZipTip, alpha-CHCA matrix, positive linear mode, 8-190 kDa
[2] = target: the molecule itself; assay: MALDI-TOF mass spectrometry; samples obtained after freezing; otherwise as the other MALDI spectra; high-order forms of low intensity

B1: ice-binding protein P80961 from longhorn sculpin (Myoxocephalus octodecemspinosus) (natural protein)
chain: MKFSLVATIVLLALAQGSFAQGAADLESLGQYFEEMKTKLIQDMTEIIRSQDLANQAQAFVEDKKTQLQPLVAQIQEQMKTVATNVEEQIRPLTANVQAHLQPQIDNFQKQMEAIIKKLTDQTMAIEN
In the case of B1, the “stoichiometry N” value [1] is reported as 2 and 3 and 4 and the “stoichiometry N” value [2] is reported as 5 and 6 and 7.
